# Experimental data as given in patent publication US12723255B2, “Herbicide tolerance genes and methods of use thereof” (priority 2014, dated 2026).
# Tests used:
# [1] = type: biochemical; details: for temperature sensitivity compared with the wild-type enzyme: substrate 2,4-D, lower T1/2 than wild-type
# Protocol: To analyze these engineered proteins for activity in higher temperatures, the in vitro enzyme assay in Example 1 was modified to specify pre-heating all of the assay components to the desired temperature for 5 minutes before combining the components and then maintaining the reaction at the desired temperature for the duration of the reaction. To normalize the assay measurements, quizalofop-P was used as the substrate for the reaction and enzyme activity was normalized based on the 25° C. readings. Using these parameters, the temperature at which the enzyme activity was half of maximum (T1/2) was calculated. The T1/2 for MON-HT55 was calculated to be 29° C., and the T1/2 for wild-type RdpA was calculated to be 38° C. (FIG. 2A).
# Enzyme activity over a range of temperatures was analyzed in-depth for MON-HT1, MON-HT2, MON-HT7, and MON-HT8. These assays were conducted as described above. Quizalofop-P or 2,4-D was used as the substrate for these reactions and activity was normalized based on the activity of the wild-type enzyme at 25° C. The activity curves obtained are presented in FIG. 2B (with quizalofop-P as the substrate) and FIG. 2C (with 2,4-D as the substrate). Using quizalofop-P as the substrate, MON-HT55 was the most temperature sensitive, with a T1/2 of 29° C. […] MON-HTI was slightly less temperature sensitive, with a T1/2 about 1° C. higher than the wild-type enzyme.
# [2] = tested on: mRNA transcribed from the transgene cassette; assay: Quantigene analysis of transgene mRNA expression in leaf samples; details: normalized to maize housekeeping genes, average of eight samples
# Description: Leaf samples were collected from the plants containing transgene cassettes encoding MON-HT1, MON-HT2, and MON-HT8 with and without CTP sequences to determine expression of the mRNA transcribed from the transgene cassette encoding the engineered proteins. Quantigene® analysis was done on the leaf sample extracts to determine mRNA expression of the transgene cassette. For these assays, the probe was to the common 3′-UTR sequence present in each expression cassette used to generate the transgenic plants. Relative expression was calculated by normalizing to maize housekeeping genes. A leaf sample was collected from each of eight plants for each construct configuration used to make the transgenic plants, and the reported relative mRNA expression data is an average of the eight samples with standard error.
# F1 hybrid maize plants [3] = assay: trait efficacy field trial, quizalofop-P pressure screening, F1 hybrid; type: in vivo; details: crop injury percentage; for 4X Qizalofop-P CIPV4 / 4X Qizalofop-P CIPV8: 0.32 lb ai/acre at VE-V2, V4, V8; for 8X Qizalofop-P CIPV4 / 8X Qizalofop-P CIPV8: 0.64 lb ai/acre at VE-V2, V4, V8; for 16X Qizalofop-P CIPV4 / 16X Qizalofop-P CIPV8: 1.28 lb ai/acre at VE-V2, V4, V8
# Protocol: (§1) Separate trait efficacy field trials for quizalofop-P and 2,4-D pressure screening were conducted at one location each with F1 hybrid transgenic plants produced by crossing an inbred plant containing maize event MON89034 with an R1 plant containing MON-HT1, MON-HT2, MON-HT8, MON-HT9, and MON-HT10 with and without operably linked CTP sequences. Transgenic F1 hybrid plants containing maize events NK603×MON89034 were used for comparison as a control.
# In the trait efficacy field trial for quizalofop-P tolerance, one of three herbicide treatments was used: (1) quizalofop-P (Assure II) at 0.32 lb ai/acre (4×) plus 0.25% v/v non-ionic surfactant (NIS) applied at VE-V2 growth stage followed by the same at V4 growth stage followed by the same at V8 growth stage; (2) quizalofop-P at 0.64 lb ai/acre (8×) plus 0.25% v/v NIS applied at VE-V2 growth stage followed by the same at V4 growth stage followed by the same at V8 growth stage; or (3) quizalofop-P at 1.28 lb ai/acre (16×) plus 0.25% v/v NIS applied at VE-V2 growth stage followed by the same at V4 growth stage followed by the same at V8 growth stage. Plots were visually rated as above. […] The injury rating for the control plants after all quizalofop-P application was 100%. Error was calculated using LSD (0.05).
# F1 hybrid maize plants [4] = assay: trait efficacy field trial, 2,4-D pressure screening, F1 hybrid; type: in vivo; details: crop injury percentage; for 4X 2,4-D CIPV4 / 4X 2,4-D CIPV8: 4 lb ae/acre at VE-V2, V4, V8; for 8X 2,4-D CIPV4 / 8X 2,4-D CIPV8: 8 lb ae/acre at VE-V2, V4, V8; for 16X 2,4-D CIPV4 / 16X 2,4-D CIPV8: 16 lb ae/acre at VE-V2, V4, V8
# Protocol: as §1
# Three herbicide treatments were used in the trait efficacy field trial for 2,4-D tolerance: (1) 2,4-D amine at 4 lb ac/acre (4×) plus 0.25% v/v NIS applied to VE-V2 followed by V4 followed by V8; (2) 2,4-D amine at 8 lb ac/acre (8×) plus 0.25% v/v NIS applied to VE-V2 followed by V4followed by V8 maize; or (3) 2,4-D amine at 16 lb ac/acre (16×) plus 0.25% v/v NIS applied to VE-V2 followed by V4 followed by V8. Plots were visually rated as above.
# The injury rating for the control plants after all 2,4-D applications ranged from 80% to 96.25%. At the highest rate of 2,4-D (16×) applied through V8, the plants containing MON-HT1 or MON-HT2 operably linked to any of the three CTPs (A, B, or C) had better tolerance than plants containing MON-HT1 or MON-HT2 not operably linked to a CTP. Plants containing MON-HT1, MON-HT2, or MON-HT8 with or without an operably linked CTP had better tolerance to 2,4-D at all applications tested compared to plants containing either MON-HT9 or MON-HT10 with an operably linked ‘A’ CTP. Over the range of 2,4-D applications the relative ranking of tolerance was: plants containing MON-HT1 had better tolerance than plants containing MON-HT2 which were in turn better than plants containing MON-HT8. […] Error was calculated using LSD (0.05).
molecule,measurement,setting,value
"MON-HT8: engineered oxygenase protein, amino acid sequence SEQ ID NO:37 (protein) MHAALTPLTNKYRFIDVQPLTGVLGAEITGVDLREPLDDSTWNEILDAFHTYQVIYFPGQAITNEQHIAFSRRFGPVDPVPILKSIEGYPEVQMIRREANESGRVIGDDWHTDSTFLDAPPAAVVMRAIEVPEYGGDTGFLSMYSAWETLSPTMQATIEGLNVVHSATKVFGSLYQATNWRFSNTSVKVMDVDAGDRETVHPLVVTHPVTGRRALYCNQVYCQKIQGMTDAESKSLLQFLYEHATKFDFTCRVRWKKDQVLVWDNLCTMHRSVPDYGNAFRYLTRTTVAGDKPSR","T1/2, temperature at which the enzyme activity was half of maximum",[1],41 °C
same,temperature sensitivity compared with the wild-type enzyme,[1],slightly more temperature sensitive
same,Relative Expression,[2]; CTP A,8.06
same,Relative Expression,[2]; CTP B,7.62
same,Relative Expression,[2]; CTP C,4.87
same,4X Qizalofop-P CIPV4,F1 hybrid maize plants [3]; CTP A,15
same,4X Qizalofop-P CIPV8,F1 hybrid maize plants [3]; CTP A,15
same,8X Qizalofop-P CIPV4,F1 hybrid maize plants [3]; CTP A,37.5
same,8X Qizalofop-P CIPV8,F1 hybrid maize plants [3]; CTP A,35
same,16X Qizalofop-P CIPV4,F1 hybrid maize plants [3]; CTP A,60
same,16X Qizalofop-P CIPV8,F1 hybrid maize plants [3]; CTP A,50
same,4X Qizalofop-P CIPV4,F1 hybrid maize plants [3]; CTP B,5
same,4X Qizalofop-P CIPV8,F1 hybrid maize plants [3]; CTP B,7.5
same,8X Qizalofop-P CIPV4,F1 hybrid maize plants [3]; CTP B,32.5
same,8X Qizalofop-P CIPV8,F1 hybrid maize plants [3]; CTP B,35
same,16X Qizalofop-P CIPV4,F1 hybrid maize plants [3]; CTP B,27.5
same,16X Qizalofop-P CIPV8,F1 hybrid maize plants [3]; CTP B,30
same,4X Qizalofop-P CIPV4,F1 hybrid maize plants [3]; CTP C,55
same,4X Qizalofop-P CIPV8,F1 hybrid maize plants [3]; CTP C,45
same,8X Qizalofop-P CIPV4,F1 hybrid maize plants [3]; CTP C,75
same,8X Qizalofop-P CIPV8,F1 hybrid maize plants [3]; CTP C,55
same,16X Qizalofop-P CIPV4,F1 hybrid maize plants [3]; CTP C,85
same,16X Qizalofop-P CIPV8,F1 hybrid maize plants [3]; CTP C,72.5
same,"4X 2,4-D CIPV4",F1 hybrid maize plants [4]; CTP A,7.5
same,"4X 2,4-D CIPV8",F1 hybrid maize plants [4]; CTP A,5
same,"8X 2,4-D CIPV4",F1 hybrid maize plants [4]; CTP A,10
same,"8X 2,4-D CIPV8",F1 hybrid maize plants [4]; CTP A,12.5
same,"16X 2,4-D CIPV4",F1 hybrid maize plants [4]; CTP A,15
same,"16X 2,4-D CIPV8",F1 hybrid maize plants [4]; CTP A,30
same,"4X 2,4-D CIPV4",F1 hybrid maize plants [4]; CTP B,5
same,"4X 2,4-D CIPV8",F1 hybrid maize plants [4]; CTP B,7.5
same,"8X 2,4-D CIPV4",F1 hybrid maize plants [4]; CTP B,10
same,"8X 2,4-D CIPV8",F1 hybrid maize plants [4]; CTP B,27.5
same,"16X 2,4-D CIPV4",F1 hybrid maize plants [4]; CTP B,10
same,"16X 2,4-D CIPV8",F1 hybrid maize plants [4]; CTP B,20
same,"4X 2,4-D CIPV4",F1 hybrid maize plants [4]; CTP C,10
same,"4X 2,4-D CIPV8",F1 hybrid maize plants [4]; CTP C,7.5
same,"8X 2,4-D CIPV4",F1 hybrid maize plants [4]; CTP C,10
same,"8X 2,4-D CIPV8",F1 hybrid maize plants [4]; CTP C,17.5
same,"16X 2,4-D CIPV4",F1 hybrid maize plants [4]; CTP C,17.5
same,"16X 2,4-D CIPV8",F1 hybrid maize plants [4]; CTP C,25
"MON-HT2: engineered oxygenase protein, amino acid sequence SEQ ID NO:18 (protein) MHAALTPLTNKYRFIDVQPLTGVLGAEITGVDLREPLDDSTWNEILDAFHTYQVIYFPGQAITNEQHIAFSRRFGPVDPVPLLKSIEGYPEVQMIRREANESSRVIGDDWHSDSTFLDAPPAAVVMRAIEVPEYGGDTGFLSMYSAWETLSPTMQATIEGLNVVHSATKVFGSLYQATNWRFSNTSVKVMDVDAGDRETVHPLVVTHPVTGRRALYCNQVYCQKIQGMTDAESKSLLQFLYEHATKFDFTCRVRWKKDQVLVWDNLCTMHRAAPDYAGKFRYLTRTTVAGDKPSR","T1/2, temperature at which the enzyme activity was half of maximum",[1],46 °C
same,temperature sensitivity compared with the wild-type enzyme,[1],slightly more temperature sensitive
same,Relative Expression,[2]; CTP A,6.96
same,Relative Expression,[2]; CTP B,6.16
same,Relative Expression,[2]; CTP C,4.11
same,Relative Expression,[2]; no CTP,4.66
same,4X Qizalofop-P CIPV4,F1 hybrid maize plants [3]; CTP A,0
same,4X Qizalofop-P CIPV8,F1 hybrid maize plants [3]; CTP A,5
same,8X Qizalofop-P CIPV4,F1 hybrid maize plants [3]; CTP A,2.5
same,8X Qizalofop-P CIPV8,F1 hybrid maize plants [3]; CTP A,7.5
same,16X Qizalofop-P CIPV4,F1 hybrid maize plants [3]; CTP A,5
same,16X Qizalofop-P CIPV8,F1 hybrid maize plants [3]; CTP A,15
same,4X Qizalofop-P CIPV4,F1 hybrid maize plants [3]; CTP B,0
same,4X Qizalofop-P CIPV8,F1 hybrid maize plants [3]; CTP B,5
same,8X Qizalofop-P CIPV4,F1 hybrid maize plants [3]; CTP B,0
same,8X Qizalofop-P CIPV8,F1 hybrid maize plants [3]; CTP B,10
same,16X Qizalofop-P CIPV4,F1 hybrid maize plants [3]; CTP B,0
same,16X Qizalofop-P CIPV8,F1 hybrid maize plants [3]; CTP B,20
same,4X Qizalofop-P CIPV4,F1 hybrid maize plants [3]; CTP C,0
same,4X Qizalofop-P CIPV8,F1 hybrid maize plants [3]; CTP C,5
same,8X Qizalofop-P CIPV4,F1 hybrid maize plants [3]; CTP C,5
same,8X Qizalofop-P CIPV8,F1 hybrid maize plants [3]; CTP C,12.5
same,16X Qizalofop-P CIPV4,F1 hybrid maize plants [3]; CTP C,12.5
same,16X Qizalofop-P CIPV8,F1 hybrid maize plants [3]; CTP C,20
same,4X Qizalofop-P CIPV4,F1 hybrid maize plants [3]; no CTP,35
same,4X Qizalofop-P CIPV8,F1 hybrid maize plants [3]; no CTP,45
same,8X Qizalofop-P CIPV4,F1 hybrid maize plants [3]; no CTP,50
same,8X Qizalofop-P CIPV8,F1 hybrid maize plants [3]; no CTP,37.5
same,16X Qizalofop-P CIPV4,F1 hybrid maize plants [3]; no CTP,70
same,16X Qizalofop-P CIPV8,F1 hybrid maize plants [3]; no CTP,55
same,"4X 2,4-D CIPV4",F1 hybrid maize plants [4]; CTP A,5
same,"4X 2,4-D CIPV8",F1 hybrid maize plants [4]; CTP A,5
same,"8X 2,4-D CIPV4",F1 hybrid maize plants [4]; CTP A,10
same,"8X 2,4-D CIPV8",F1 hybrid maize plants [4]; CTP A,7.5
same,"16X 2,4-D CIPV4",F1 hybrid maize plants [4]; CTP A,10
same,"16X 2,4-D CIPV8",F1 hybrid maize plants [4]; CTP A,20
same,"4X 2,4-D CIPV4",F1 hybrid maize plants [4]; CTP B,5
same,"4X 2,4-D CIPV8",F1 hybrid maize plants [4]; CTP B,5
same,"8X 2,4-D CIPV4",F1 hybrid maize plants [4]; CTP B,5
same,"8X 2,4-D CIPV8",F1 hybrid maize plants [4]; CTP B,10
same,"16X 2,4-D CIPV4",F1 hybrid maize plants [4]; CTP B,10
same,"16X 2,4-D CIPV8",F1 hybrid maize plants [4]; CTP B,25
same,"4X 2,4-D CIPV4",F1 hybrid maize plants [4]; CTP C,10
same,"4X 2,4-D CIPV8",F1 hybrid maize plants [4]; CTP C,15
same,"8X 2,4-D CIPV4",F1 hybrid maize plants [4]; CTP C,10
same,"8X 2,4-D CIPV8",F1 hybrid maize plants [4]; CTP C,10
same,"16X 2,4-D CIPV4",F1 hybrid maize plants [4]; CTP C,15
same,"16X 2,4-D CIPV8",F1 hybrid maize plants [4]; CTP C,20
same,"4X 2,4-D CIPV4",F1 hybrid maize plants [4]; no CTP,7.5
same,"4X 2,4-D CIPV8",F1 hybrid maize plants [4]; no CTP,7.5
same,"8X 2,4-D CIPV4",F1 hybrid maize plants [4]; no CTP,17.5
same,"8X 2,4-D CIPV8",F1 hybrid maize plants [4]; no CTP,42.5
same,"16X 2,4-D CIPV4",F1 hybrid maize plants [4]; no CTP,25
same,"16X 2,4-D CIPV8",F1 hybrid maize plants [4]; no CTP,45
